Common to all, as to test: pepscan: 15-mer peptide on OVA-microspheres, biotinylated BC2-Nb, streptavidin-PE
One assay concerns the target T1, β-catenin peptide 61-75 (human, UniProt P35222).
T1 construct: synthetic 15-mer; additional N-terminal cysteine for coupling; also called Start 61 End 75
T1 peptide (looked up): QVLYEWEQGFSQSFT
An excerpt:
(§1) As negative controls, microspheres comprising Ovalbumin and the Myc-peptide ([…]) covalently coupled to OVA-microspheres were used. […] Evaluation of the PE-signals were done in a Flexmap 3D (Luminex).

The target in a further assay is T2, β-catenin peptide 33-47 (human, UniProt P35222).
T2 construct: synthetic 15-mer; additional N-terminal cysteine for coupling; also called Start 33 End 47
T2 peptide (looked up): SGIHSGATTTAPSLS
Text: as §1

Another assay has as its target T3, β-catenin peptide 9-23 (human, UniProt P35222).
T3 construct: synthetic 15-mer; additional N-terminal cysteine for coupling; also called Start 9 End 23
T3 peptide (looked up): ELDMAMEPDRKAAVS
Text: as §1

Another assay deals with T4, β-catenin peptide 21-35 (human, UniProt P35222).
T4 construct: synthetic 15-mer; additional N-terminal cysteine for coupling; also called Start 21 End 35
T4 peptide (looked up): AVSHWQQQSYLDSGI
Text: as §1

For a further assay, the target named is T5, AMEPDRKAAVSHWQQ (also: coupled via added N-terminal Cys to OVA-microspheres).
T5 construct: also called β-catenin peptide Start 13 End 27
T5 peptide: CAMEPDRKAAVSHWQQ
Text: as §1

A further assay deals with T6, β-catenin peptide 77-91 (human, UniProt P35222).
T6 construct: synthetic 15-mer; additional N-terminal cysteine for coupling; also called Start 77 End 91
T6 peptide (looked up): EQVADIDGQYAMTRA
Text: as §1

A further assay deals with T7, β-catenin peptide 41-55 (human, UniProt P35222).
T7 construct: synthetic 15-mer; additional N-terminal cysteine for coupling; also called Start 41 End 55
T7 peptide (looked up): TTAPSLSGKGNPEEE
Text: as §1

The target in the next assay is T8, β-catenin peptide 29-43 (human, UniProt P35222).
T8 construct: synthetic 15-mer; additional N-terminal cysteine for coupling; also called Start 29 End 43
T8 peptide (looked up): SYLDSGIHSGATTTA
Text: as §1

In another assay the target is T9, β-catenin peptide 97-111 (human, UniProt P35222).
T9 construct: synthetic 15-mer; additional N-terminal cysteine for coupling; also called Start 97 End 111
T9 peptide (looked up): AMFPETLDEGMQIPS
Text: as §1

For assay [1], the target named is T10, β-catenin peptide 113-127 (human, UniProt P35222).
T10 construct: synthetic 15-mer; additional N-terminal cysteine for coupling; also called Start 113 End 127
T10 peptide (looked up): QFDAAHPTNVQRLAE
Text: as §1

The target in another assay is T11, β-catenin peptide 81-95 (human, UniProt P35222).
T11 construct: synthetic 15-mer; additional N-terminal cysteine for coupling; also called Start 81 End 95
T11 peptide (looked up): DIDGQYAMTRAQRVR
Text: as §1

The target in a further assay is T12, β-catenin peptide 53-67 (human, UniProt P35222).
T12 construct: synthetic 15-mer; additional N-terminal cysteine for coupling; also called Start 53 End 67
T12 peptide (looked up): EEEDVDTSQVLYEWE
Text: as §1

The target in the next assay is T13, β-catenin peptide 49-63 (human, UniProt P35222).
T13 construct: synthetic 15-mer; additional N-terminal cysteine for coupling; also called Start 49 End 63
T13 peptide (looked up): KGNPEEEDVDTSQVL
Text: as §1

Assay [2] addresses T14, β-catenin peptide 105-119 (human, UniProt P35222).
T14 construct: synthetic 15-mer; additional N-terminal cysteine for coupling
T14 peptide (looked up): EGMQIPSTQFDAAHP
Text: as §1

Assay [3] addresses T15, β-catenin peptide 109-123 (human, UniProt P35222).
T15 construct: synthetic 15-mer; additional N-terminal cysteine for coupling; also called Start 109 End 123
T15 peptide (looked up): IPSTQFDAAHPTNVQ
Text: as §1

In the next assay the target is T16, β-catenin peptide 69-83 (human, UniProt P35222).
T16 construct: synthetic 15-mer; additional N-terminal cysteine for coupling; also called Start 69 End 83
T16 peptide (looked up): GFSQSFTQEQVADID
Text: as §1

The next assay has as its target T17, β-catenin peptide 93-107 (human, UniProt P35222).
T17 construct: synthetic 15-mer; additional N-terminal cysteine for coupling; also called Start 93 End 107
T17 peptide (looked up): RVRAAMFPETLDEGM
Text: as §1

The next assay deals with T18, β-catenin peptide 85-99 (human, UniProt P35222).
T18 construct: synthetic 15-mer; additional N-terminal cysteine for coupling; also called Start 85 End 99
T18 peptide (looked up): QYAMTRAQRVRAAMF
Text: as §1

The next assay concerns the target T19, β-catenin peptide 65-79 (human, UniProt P35222).
T19 construct: synthetic 15-mer; additional N-terminal cysteine for coupling; also called Start 65 End 79
T19 peptide (looked up): EWEQGFSQSFTQEQV
Text: as §1

The target of a further assay is T20, β-catenin peptide 89-103 (human, UniProt P35222).
T20 construct: synthetic 15-mer; additional N-terminal cysteine for coupling; also called Start 89 End 103
T20 peptide (looked up): TRAQRVRAAMFPETL
Text: as §1

Ends that are not written are not given here.

B1: BC2 nanobody (VHH)
VHH: QVQLVESGGGLVQPGGSLTLSCTASGFTLDHYDIGWFRQAPGKEREGVSCINNSDDDTYYADSVKGRFTIFMDNAKDTVYLQMNSLKPEDTAIYYCAEARGCKRGRYEYDFWGQGTQVTVSS
notes: Alpaca VHH, 122 aa; also called BC2-Nb; BC2 nanotrap (BC2-Nb immobilized on agarose/Sepharose beads); not shown: C-terminal 6xHis-tag added by the pHEN6 vector
For the molecule B1, the binding result with β-catenin peptide 61-75 is on record as “no binding (tested: 1 µg/ml BC2-Nb)”; in the assay with β-catenin peptide 33-47, “no binding (tested: 1 µg/ml BC2-Nb)”; in the assay with β-catenin peptide 9-23, “no binding (tested: 1 µg/ml BC2-Nb)”; with β-catenin peptide 21-35, “no binding (tested: 1 µg/ml BC2-Nb)”; in the assay with AMEPDRKAAVSHWQQ, “binds”; with β-catenin peptide 77-91 it was “no binding (tested: 1 µg/ml BC2-Nb)”. Further, the binding result (in the assay with β-catenin peptide 41-55; in the assay with β-catenin peptide 29-43; with β-catenin peptide 97-111; in [1]; in the assay with β-catenin peptide 81-95; with β-catenin peptide 53-67) was “no binding (tested: 1 µg/ml BC2-Nb)” throughout. The binding result (with β-catenin peptide 49-63; in assay [2]; in [3]; with β-catenin peptide 69-83; with β-catenin peptide 93-107; with β-catenin peptide 85-99) was “no binding (tested: 1 µg/ml BC2-Nb)” each time. The binding result in the assay with β-catenin peptide 65-79 and in the assay with β-catenin peptide 89-103 was “no binding (tested: 1 µg/ml BC2-Nb)” in each case.

For the origin of these results see patent publication US20170137467A1 (CHROMOTEK, published 2017).
